Reference: patent publication US7871610B2, “Antibodies to Tie1 ectodomain” (Dyax Corp., priority 2003, dated 2011)

Key:
[1] = target: T1, recombinant human Tie1-Fc (Homo sapiens, UniProt P35590); test: BIAcore, parental and germlined E3b Fabs on human Tie-1/Fc; format: binding; settings: parental and germlined E3b Fabs, human Tie-1/Fc
T1 construct: selected against the Tie1 extracellular domain fused to human Fc or to a histidine purification tag
T1 sequence (P35590 22-759 limits assumed): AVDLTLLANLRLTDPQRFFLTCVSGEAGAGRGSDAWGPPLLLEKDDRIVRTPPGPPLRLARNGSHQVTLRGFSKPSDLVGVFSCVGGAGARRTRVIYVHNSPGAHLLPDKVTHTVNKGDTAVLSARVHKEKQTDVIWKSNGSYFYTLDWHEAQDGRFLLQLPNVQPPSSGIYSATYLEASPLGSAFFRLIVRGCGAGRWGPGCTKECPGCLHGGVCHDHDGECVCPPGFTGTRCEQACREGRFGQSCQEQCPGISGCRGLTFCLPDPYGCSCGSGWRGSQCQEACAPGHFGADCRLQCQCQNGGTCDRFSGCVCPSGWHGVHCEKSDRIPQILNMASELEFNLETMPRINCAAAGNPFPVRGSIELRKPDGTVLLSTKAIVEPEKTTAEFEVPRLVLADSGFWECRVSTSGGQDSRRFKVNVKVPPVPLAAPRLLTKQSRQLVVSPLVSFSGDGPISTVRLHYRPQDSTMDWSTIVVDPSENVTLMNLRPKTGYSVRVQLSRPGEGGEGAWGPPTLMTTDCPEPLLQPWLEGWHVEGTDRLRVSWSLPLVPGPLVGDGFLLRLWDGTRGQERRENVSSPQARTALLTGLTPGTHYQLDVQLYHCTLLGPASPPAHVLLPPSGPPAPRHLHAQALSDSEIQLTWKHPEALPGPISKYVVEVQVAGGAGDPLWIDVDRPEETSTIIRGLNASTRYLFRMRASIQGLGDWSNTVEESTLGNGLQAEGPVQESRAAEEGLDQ
Method: Recombinant human Tie-1/Fc was coated on a CM5 chip. The surface of the chip was first activated with a 7-minute pulse of 0.05 M NHS/0.2 M EDC, then Tie-1/Fc (2 μg/ml in 10 mM sodium acetate, pH 4.0) was run over the chip surface until 750 RUs were coated on the surface. All flow cells were subsequently deactivated with a 7-minute pulse of 1 M ethanolamine hydrochloride, pH 8.5. All further experiments were performed in HBS buffer.
The parental and the germlined E3b Fabs were prepared. A series of dilution (50, 25, 12.5, 6.25 and 3.125 nM) was prepared in HBS buffer. Samples were injected at 30 μl/min for 5.3 minutes using the KINJECT™ program. This was followed by a 10-minute dissociation phase, and the remaining Fab was stripped from the surface with a single 18-sec injection of 50 mM NaOH/1 M NaCl.
Sensorgrams were analyzed using the simultaneous ka/kd fitting program from the BIAEVALUATION™ software 3.1 assuming a 1:1 model.

Tie1 = Tie1 (Homo sapiens, UniProt P35590); test: Immunohistochemistry of matched human tumor and normal tissue sections; set-up: from tissue; host or cells: fresh frozen normal and tumor tissue (e.g. lung, kidney, skin, breast); settings: fresh frozen tissue
Method: The Tie-1 antibodies were biotinylated using the EZ-link Sulfo-NHS-SS-Biotin (Pierce, Cat. 21331). For Tie-1/Fc and Tie-1-His, the reaction was performed for 2 hours on ice in 50 mM sodium carbonate buffer, pH 9.6, in the presence of a 5-fold molar excess of biotinylating agent. For the antibodies, the reaction was performed for 2 hours on ice in PBS, in the presence of a 15-fold molar excess of EZ-link Sulfo-NHS-SS-Biotin. The reaction was stopped by the addition of Tris-HCl, pH 7.5 (50 mM final concentration) followed by a 1-hour incubation on ice. Samples were then dialyzed against PBS.
Various normal and tumor tissue sections were stained with biotinylated antibodies. A mouse monoclonal anti-Tie1 antibody (7e8) (Alitalo laboratory, University of Helsinki) was used as a positive control. Sections without primary antibody served as negative control. All samples were fresh frozen tissues and staining was performed with the TSA-kit (Perkin-Elmer Life Sciences). After acetone fixation (10-20 min, −20° C.) the slides were treated with 0.73% H2O2 for 10 min to reduce endogenous peroxidase activity followed by blocking for 30 min with TNB buffer. Sections ([…] thick) were incubated with primary antibodies (10 μg/ml) overnight at 4° C. Sections with the mouse monoclonal anti-tie1 antibody (7e8) were treated with biotinylated anti-mouse antibodies (VectaStain) before the addition of streptavidin-HRP. Signal was amplified by using a TSA kit and the visualized by AEC (235 ml NaAc, 15 ml AEC (stock solution: 1600 mg 3-amino-9-ethyl-carbazole and 480 ml N-dimethylformamide), 250 μl H2O2).

Tie1, sequence (P35590 22-1138): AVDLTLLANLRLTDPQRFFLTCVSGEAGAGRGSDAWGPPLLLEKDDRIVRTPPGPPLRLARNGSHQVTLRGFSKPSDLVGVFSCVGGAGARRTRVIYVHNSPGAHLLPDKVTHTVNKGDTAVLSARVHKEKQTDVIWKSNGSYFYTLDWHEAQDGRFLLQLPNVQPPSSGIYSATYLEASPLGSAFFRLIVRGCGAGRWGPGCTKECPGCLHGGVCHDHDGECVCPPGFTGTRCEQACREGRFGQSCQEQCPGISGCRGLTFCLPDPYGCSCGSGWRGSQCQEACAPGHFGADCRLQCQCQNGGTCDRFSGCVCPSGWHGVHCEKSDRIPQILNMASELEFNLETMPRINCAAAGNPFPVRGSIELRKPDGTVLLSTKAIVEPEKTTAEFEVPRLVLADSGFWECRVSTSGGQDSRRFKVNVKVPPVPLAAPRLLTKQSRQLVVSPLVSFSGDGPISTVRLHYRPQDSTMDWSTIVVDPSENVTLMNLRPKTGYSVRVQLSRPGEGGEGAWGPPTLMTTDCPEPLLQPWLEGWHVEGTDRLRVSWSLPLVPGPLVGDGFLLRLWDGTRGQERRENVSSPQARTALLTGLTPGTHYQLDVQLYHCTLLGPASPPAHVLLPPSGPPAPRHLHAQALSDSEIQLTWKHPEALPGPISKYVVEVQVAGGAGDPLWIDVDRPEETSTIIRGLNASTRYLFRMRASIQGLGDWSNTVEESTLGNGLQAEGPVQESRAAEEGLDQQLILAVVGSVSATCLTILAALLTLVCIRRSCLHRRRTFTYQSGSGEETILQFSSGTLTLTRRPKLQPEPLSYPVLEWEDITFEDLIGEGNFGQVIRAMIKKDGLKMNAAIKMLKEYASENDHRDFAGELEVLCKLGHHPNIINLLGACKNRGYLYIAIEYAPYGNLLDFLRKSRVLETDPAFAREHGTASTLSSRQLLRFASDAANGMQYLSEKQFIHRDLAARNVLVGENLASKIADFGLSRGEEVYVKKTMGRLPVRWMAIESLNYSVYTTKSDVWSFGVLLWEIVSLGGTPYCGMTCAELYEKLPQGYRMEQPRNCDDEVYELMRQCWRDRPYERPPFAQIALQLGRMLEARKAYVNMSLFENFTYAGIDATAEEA

B1: E3: human anti-Tie1 antibody from Fab phage library; HC SEQ ID NO:114, LC SEQ ID NO:116 (antibody, V domains shown)
VH: EVQLLESGGGLVQPGGSLRLSCAASGFTFSMYGMVWVRQAPGKGLEWVSVISPSGGNTGYADSVKGRFTISRDNSKNTLYLQVNSLRAEDTAVYYCARAPRGYSYGYYYWGQGTLVTVSSASTKGPSVFPLAPSSKSTSGG
VL: DIQMTQSPLSLSASVGDRVTITCRASQGIGHYLAWYQQKPGKVPKLLIYTASTLQSGVPSRFSGSGSGTDFTLTINSLQPEDVATYYCQQFNSYPHTFGQGTRLDIK
modifications: Synthetically generated peptide
effect of germlining on the affinity against Tie-1/Fc [1]: little or no effect on the affinity
staining of breast carcinoma (Tie1; 10 μg/ml): stained also other structures in addition to vessels
staining of hypernephroma tissue (Tie1; 10 μg/ml): clear staining
staining of kidney (Tie1; 10 μg/ml): stained kidney tubules in addition to the vessels
staining of lung carcinoma (Tie1; 10 μg/ml): stained structures other than vessels
staining of melanoma tissue (Tie1; 10 μg/ml): also stained other surrounding structures
staining of normal lung (large veins) (Tie1; 10 μg/ml): stained especially clearly the large veins
staining of normal skin (Tie1; 10 μg/ml): stained blood vessels very faintly
staining of veins and capillaries of mammary tissue (breast) (Tie1; 10 μg/ml): brightest staining
staining of vessels in normal tissues (tissue specificity) (Tie1; biotinylated IgG 10 μg/ml): stained vessels in the lung and kidney but not in the skin
